Experimental data published in US20110044994A1 (THERACLONE SCIENCES, published 2011).

B1: 1495_C14 (PGC14) (antibody, human IgG1, lambda, V domains shown)
VH: DGHLVQSGVEVKKTGATVKISCKVSGYSFIDYYLHWVQRAPGKGLEWVGLIDPENGEARYAEKFQGRVTIIADTSIDTGYMEMRSLKSEDTAVYFCAAGAVGADSGSWFDPWGQGTLVTVSS
VL: SYELTQPPSVSVSPGQTASITCSGSKLGDKYVSWYQLRPGQSPILVMYENDRRPSGIPERFSGSNSGDTATLTISGTQALDEADFYCQAWETTTTTFVFFGGGTQLTVLG
B2: 1443_C16 (PG16) (antibody, V domains shown)
VH: QEQLVESGGGVVQPGGSLRLSCLASGFTFHKYGMHWVRQAPGKGLEWVALISDDGMRKYHSDSMWGRVTISRDNSKNTLYLQFSSLKVEDTAMFFCAREAGGPIWHDDVKYYDFNDGYYNYHYMDVWGKGTTVTVSS
VL: QSALTQPASVSGSPGQTITISCNGTSSDVGGFDSVSWYQQSPGKAPKVMVFDVSHRPSGISNRFSGSKSGNTASLTISGLHIEDEGDYFCSSLTDRSHRIFGGGTKVTVLG
B3: 1496_C09 (PG9) (antibody, V domains shown)
VH: QRLVESGGGVVQPGSSLRLSCAASGFDFSRQGMHWVRQAPGQGLEWVAFIKYDGSEKYHADSVWGRLSISRDNSKDTLYLQMNSLRVEDTATYFCVREAGGPDYRNGYNYYDFYDGYYNYHYMDVWGKGTTVTVSS
VL: QSALTQPASVSGSPGQSITISCNGTSNDVGGYESVSWYQQHPGKAPKVVIYDVSKRPSGVSNRFSGSKSGNTASLTISGLQAEDEGDYYCKSLTSTRRRVFGTGTKLTVLG
B4: 1456_P20 (PG20) (antibody, human IgG1, kappa, V domains shown)
VH: QVRLVQSGPEVKKPGSSVTVSCQASGGTFSSYAFTWVRQAPGQGLEWLGMVTPIFGEAKYSQRFEGRVTITADESTSTTSIELRGLTSEDTAIYYCARDRRAVPIATDNWLDPWGQGTLVTVSS
VL: DIQLTQSPSSLSASVGDRVSITCRASQTINNYLNWYQQTPGKAPKLLIYGASNLQNGVPSRFSGSGSGTDFTLTISSLQPEDFATYYCQQSFSTPRTFGQGTRLDIKR
B5: 1460_G14 (PGG14) (antibody, human IgG1, kappa, V domains shown)
VH: QVLLVQSGTEVKKPGSSVKVSCQASGGAFSSYAFSWVRQAPGQGLEWMGMITPVFGETKYAPRFQGRLTLTAEESLSTTYMELRSLTSDDTAFYYCTRDRRVVPMATDNWLDPWGQGTLVTVSS
VL: DIQLTQSPSSLSASVGDRVTVTCRASQTIHTYLNWYQQIPGKAPKLLIYGASTLQSGVPSRFSGSGSGTDFTLTINSLQPEDFATYYCQQSYSTPRTFGQGTRLDIKR

What was measured:
recombinant gp41HxB2 [1] = molecular target: T1, recombinant gp41HxB2 (HIV-1, UniProt P04578 541-682); assay: ELISA
T1 construct: domain: gp41

[2] = molecular target: T2, recombinant, monomeric gp120JR-CSF (HIV-1, UniProt P20871 32-503); assay: mAb specificity by ELISA
T2 construct: domain: gp120; also called JR-CSF gp120; JR-CSFgp120

[3] = molecular target: JR-CSF pseudovirus (HIV-1 Env on the virions) (HIV-1, UniProt P20871 32-848); assay: cell-based or functional assay
[4] = molecular target: JR-FL (E168K) pseudovirus Env (HIV-1); assay: cell-based or functional assay
ADA pseudovirus Env = ADA pseudovirus Env (HIV-1); assay: cell-based or functional assay
92RW020 pseudovirus Env = 92RW020 pseudovirus Env (HIV-1); assay: cell-based or functional assay
[5] = molecular target: T2, recombinant, monomeric gp120JR-CSF; assay: ELISA screen of B cell culture supernatants
recombinant gp41HxB2 [6] = molecular target: T1, recombinant gp41HxB2; assay: ELISA screen of B cell culture supernatants

Binder | binding result (recombinant gp41HxB2 [1]) | binding result [2] | IC50 (ug/ml), pseudovirus neutralization, TZM-bl assay [3] [µg/mL] | IC50 (ug/ml), pseudovirus neutralization, TZM-bl assay [4] [µg/mL] | IC50 (ug/ml), pseudovirus neutralization, TZM-bl assay (ADA pseudovirus Env) [µg/mL] | IC50 (ug/ml), pseudovirus neutralization, TZM-bl assay (92RW020 pseudovirus Env) [µg/mL] | binding result [5] | binding result (recombinant gp41HxB2 [6])
B1 | no binding | binds | – | – | – | – | – | –
B2 | – | – | 0.001 | 0.006 | 0.004 | 0.09 | no binding | no binding
B3 | – | – | – | – | 0.2 | 0.1 | – | no binding
B4 | no binding | binds | – | – | – | – | – | –
B5 | no binding | binds | – | – | – | – | – | –
